Results reported in PMC8566583.
Where “and” joins values, the source holds several entries; their conditions need not be identical. Equal entries are not always repeated. One block for each molecule: values may come before it.

Legend:
PARP1 (Homo sapiens) = PARP1 (Homo sapiens) (UniProt P09874); conditions: cited from earlier work
PARP2 (Homo sapiens) = PARP2 (Homo sapiens) (UniProt Q9UGN5); conditions: cited from earlier work
[1] = biological target: Recombinant wild-type human PARP1 (human) (UniProt P09874)
[2] = biological target: Recombinant wild-type murine PARP2 (murine) (UniProt O88554)
Sequence of UniProt O88554 (O88554 whole entry): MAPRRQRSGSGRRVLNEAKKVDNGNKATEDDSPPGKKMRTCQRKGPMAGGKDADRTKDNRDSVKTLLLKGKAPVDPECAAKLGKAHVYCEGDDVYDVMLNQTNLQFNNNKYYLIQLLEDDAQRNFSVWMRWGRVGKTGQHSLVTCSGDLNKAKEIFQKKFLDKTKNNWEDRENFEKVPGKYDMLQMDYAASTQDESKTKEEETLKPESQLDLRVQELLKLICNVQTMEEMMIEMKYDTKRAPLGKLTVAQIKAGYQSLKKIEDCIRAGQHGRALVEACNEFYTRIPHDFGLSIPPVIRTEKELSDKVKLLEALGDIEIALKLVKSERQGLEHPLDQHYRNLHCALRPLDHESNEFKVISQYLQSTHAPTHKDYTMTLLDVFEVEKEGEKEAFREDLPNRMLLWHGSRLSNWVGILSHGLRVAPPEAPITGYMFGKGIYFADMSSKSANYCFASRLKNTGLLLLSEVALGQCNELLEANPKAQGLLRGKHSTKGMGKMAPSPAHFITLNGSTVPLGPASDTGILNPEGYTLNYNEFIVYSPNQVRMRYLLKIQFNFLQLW

Sequence of UniProt Q9UGN5 (Q9UGN5 whole entry): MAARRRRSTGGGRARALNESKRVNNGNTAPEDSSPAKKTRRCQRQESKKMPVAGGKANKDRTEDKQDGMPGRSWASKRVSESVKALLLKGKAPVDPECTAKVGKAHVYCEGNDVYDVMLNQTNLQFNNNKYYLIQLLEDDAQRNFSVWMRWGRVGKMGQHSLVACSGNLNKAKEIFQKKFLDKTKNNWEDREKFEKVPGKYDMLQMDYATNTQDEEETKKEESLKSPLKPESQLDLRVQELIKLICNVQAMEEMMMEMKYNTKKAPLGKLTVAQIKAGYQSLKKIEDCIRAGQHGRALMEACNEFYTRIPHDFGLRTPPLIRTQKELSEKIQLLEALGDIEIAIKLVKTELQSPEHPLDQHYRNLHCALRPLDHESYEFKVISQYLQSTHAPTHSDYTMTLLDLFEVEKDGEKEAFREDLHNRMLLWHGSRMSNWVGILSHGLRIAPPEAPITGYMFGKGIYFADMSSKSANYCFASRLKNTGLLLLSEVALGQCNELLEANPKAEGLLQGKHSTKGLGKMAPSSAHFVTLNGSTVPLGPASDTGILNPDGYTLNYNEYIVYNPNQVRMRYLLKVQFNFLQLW

Molecule: HPF1 (from UniProt Q9NWY4)
Kd (PARP1 (Homo sapiens)): > 3000 nM and 790 nM
Kd (PARP2 (Homo sapiens)): 280 nM

DNA-independent autoPARylation level of PARP1 (500 nM, 1 uM [32P]NAD+, no DNA or NCP) with HPF1 from 60 nM to 16 uM, relative to no HPF1; maximal effect [1]: 1.6 fold
DNA-independent autoPARylation level of PARP2 (500 nM, 1 uM [32P]NAD+, no DNA or NCP) with HPF1 from 60 nM to 16 uM, relative to no HPF1; maximal effect (at a 4-fold excess of HPF1) [2]: 2.4 fold
B1: histone PARylation factor 1 (HPF1), recombinant human (natural protein)
chain: MVGGGGKRRPGGEGPQCEKTTDVKKSKFCEADVSSDLRKEVENHYKLSLPEDFYHFWKFCEELDPEKPSDSLSASLGLQLVGPYDILAGKHKTKKKSTGLNFNLHWRFYYDPPEFQTIIIGDNKTQYHMGYFRDSPDEFPVYVGINEAKKNCIIVPNGDNVFAAVKLFLTKKLREITDKKKINLLKNIDEKLTEAARELGYSLEQRTVKMKQRDKKVVTKTFHGAGLVVPVDKNDVGYRELPETDADLKRICKTIVEAASDEERLKAFAPIQEMMTFVQFANDECDYGMGLELGMDLFCYGSHYFHKVAGQLLPLAYNLLKRNLFAEIIEEHLANRSQENIDQLAA
